Assay results taken from patent publication US9561289B2, “Peptides for inhibiting tumor growth” (OSPEDALE SAN RAFFAELE SRL, priority 2012, dated 2017).
Read-outs that look alike come from different tables or passages of the source. Marks after values point to notes of the source that are not given here. *1 amine or outer side, *2 acyl side, *3 side chain or, on linkers, in order; H or OH if unused. Where a SMILES comes first, the peptide text is derived from it. Bridges are numbered along the chain shown (N, C = ends). Primed or numbered codes have the meaning given here. Side-chain parts run from the residue outwards. [ ]: non-standard residue; d: D form. The star is where a group is joined. βAsp = O=C(O)[C@H](CC(=O)[*:2])N[*:1]; SMCC = sulfo-SMCC linker; OH′ = O*

Experiments:
[1] = Asn deamidation of NGR peptides by mass spectrometry; assay type: physicochemical; conditions: 37° C., 0.1 M ammonium bicarbonate buffer, pH 8.5
Experimental: Orbitrap-ESI mass spectrometry analysis of NGR#3 and NGR-2C at various time points after incubation at 37° C. in 0.1 M ammonium bicarbonate buffer (Ambic), pH 8.5. During the analyses the NGR#3 forms dimers. +0 (no deamidation), +0.5 (one deamidation/molecule) and +1 (two deamidations/molecule) correspond to the difference between found and expected molecular masses in daltons.
It is well known that NGR may undergo Asn deamidation generating isoDGR, an integrin binding motif. To assess whether the molecular scaffold of NGR might affect the deamidation rate we analyzed the molecular masses of NGR#3 and […] (SEQ ID NO:37) (NGR-2C) before and after incubation at 37° C. in 0.1 M ammonium bicarbonate buffer, pH 8.5 (AmBic) for various times. […] The extent of binding of heat-treated NGR-HSA was very similar to that obtained with isoDGR#3-HSA, i.e. a conjugate prepared using a similar peptide having isoAsp in place of Asn (FIG. 17B, right).

[2] = molecular target: T1, α5β1 (Homo sapiens, UniProt P05556+P08648); test: Competitive integrin binding assay (isoDGR/STV-HRP) on α5β1-coated plates; conditions: number in parenthesis
T1 construct: purchased Immunological Sciences (Rome, Italy)
Experimental: (§1) A conjugate consisting of biotinylated acetyl-Ciso[…] (SEQ ID NO:36) peptide complexed with streptavidin-peroxidase conjugate (isoDGR/STV-HRP) was first prepared as described previously. […] Each mixture was then added to microtiter plates coated with integrins (αvβ3, αvβ5, αvβ6, […], or α5β1) and incubated for 2 h at room temperature. After washing, each well was incubated with 70 μl of chromogenic solution (o-phenylenediamine dihydrochloride) for 20 min, at room temperature. The chromogenic reaction was stopped by adding an equal volume of 1 N sulfuric acid. The absorbance at 490 nm was then measured using a microtiter plate reader.
(§2) The binding affinity and selectivity of each peptide for different integrins were then analyzed by competitive binding assay, using αvβ3-, αvβ5-, αvβ6-, αvβ8- and α5β1-coated plates and isoDGR/STV-HRP, an ac-isoDGR-2C/peroxidase complex, as competitor.

[3] = molecular target: T2, αvβ6 (Homo sapiens, UniProt P06756+P18564); test: Competitive integrin binding assay (isoDGR/STV-HRP) on αvβ6-coated plates; conditions: number in parenthesis
T2 construct: purchased R&D System (Minneapolis, Minn.)
Experimental: as §1, §2

[4] = molecular target: T3, αvβ8 (Homo sapiens, UniProt P06756+P26012); test: Competitive integrin binding assay (isoDGR/STV-HRP) on αvβ8-coated plates; conditions: number in parenthesis
T3 construct: purchased R&D System (Minneapolis, Minn.)
Experimental: as §1, §2

[5] = molecular target: T4, αvβ3 (Homo sapiens, UniProt P05106+P06756); test: Competitive integrin binding assay (isoDGR/STV-HRP) on αvβ3-coated plates; conditions: number in parenthesis
T4 construct: purchased Immunological Sciences (Rome, Italy)
Experimental: as §1, §2

[6] = molecular target: T5, αvβ5 (Homo sapiens, UniProt P06756+P18084); test: Competitive integrin binding assay (isoDGR/STV-HRP) on αvβ5-coated plates; conditions: number in parenthesis
T5 construct: purchased Immunological Sciences (Rome, Italy)
Experimental: as §1, §2

[7] = system: EA.hy926 endothelial cells; test: Endothelial cell adhesion to vitronectin-coated plates; assay type: cell-based, human; conditions: EA.hy926, substance added to supernatant
Experimental: Endothelial cell (EA.hy926) adhesion to microtiter plates coated with human vitronectin was carried out as described ([25]). IsoDGR#1 and isoDGR#3 were added to the supernatant during cell adhesion. […] Mean±S.E (n=3).
Cell adhesion was quantified by spectrophotometric measurement (A570 nm).

[8] = molecular target: T6, Human integrin αvβ3 (human, UniProt P06756 31-1048; P05106 27-788, limits assumed); test: competitive binding assay, integrin-coated plate, probe isoDGR/STV-HRP
T6 construct: Bought from Immunological Sciences; coated on microtiter plates or spotted on nitrocellulose; also called avb3; purified αvβ3-integrin

[9] = molecular target: T7, Human integrin αvβ5 (human, UniProt P06756 31-1048; P18084 24-799, limits assumed); test: as above
T7 construct: Bought from Immunological Sciences; coated on microtiter plates

[10] = molecular target: T8, Recombinant human integrin αvβ6 (human, UniProt P06756 31-992; P18564 22-707); test: as above
T8 construct: Bought from R&D System

[11] = molecular target: T9, Recombinant human integrin αvβ8 (human, UniProt P06756 31-992; P26012 43-684); test: as above
T9 construct: Bought from R&D System; also called αvβ38 [sic]

[12] = molecular target: T10, Human integrin α5β1 (human, UniProt P08648 42-1049; P05556 21-798, limits assumed); test: as above
T10 construct: Bought from Immunological Sciences; coated on microtiter plates

[13] = molecular target: T6, Human integrin αvβ3; test: as above; remark: listed apart in the source
[14] = molecular target: T7, Human integrin αvβ5; test: as above; remark: listed apart in the source
[15] = molecular target: T8, Recombinant human integrin αvβ6; test: as above; remark: listed apart in the source
[16] = molecular target: T9, Recombinant human integrin αvβ8; test: as above; remark: listed apart in the source
[17] = molecular target: T10, Human integrin α5β1; test: as above; remark: listed apart in the source

c(CNGRGG) (cyclic; Cyclic peptide) [NGR#3]
deamidation rate [1]: reduce the deamidation rate

N=C(N)NCCC[C@@H]1NC(=O)CNC(=O)C[C@@H](C(=O)O)NC(=O)[C@H](CS)NC(=O)CNC1=O [isoDGR#2, c(CisoDGRG)] (GRGCD-OH; lactam N-5)
ratio of integrin Ki/αvβ3 Ki (α5β1) [2]: (0.5)
ratio of integrin Ki/αvβ3 Ki (αvβ6) [3]: (1.9)
ratio of integrin Ki/αvβ3 Ki (αvβ8) [4]: (2.2)
ratio of integrin Ki/αvβ3 Ki (αvβ3) [5]: (1)
ratio of integrin Ki/αvβ3 Ki (αvβ5) [6]: (1)

N=C(N)NCCC[C@@H]1NC(=O)CNC(=O)C[C@@H](C(=O)O)NC(=O)CNC(=O)[C@H](CS)NC(=O)CNC1=O [isoDGR#1, c(CGisoDGRG)] (GRGCGD-OH; lactam N-6)
ratio of integrin Ki/αvβ3 Ki (α5β1) [2]: (3)
ratio of integrin Ki/αvβ3 Ki (αvβ6) [3]: (14)
ratio of integrin Ki/αvβ3 Ki (αvβ3) [5]: (1)^c
ratio of integrin Ki/αvβ3 Ki (αvβ5) [6]: (2)
inhibition of endothelial cell adhesion to vitronectin [7]: could efficiently inhibit endothelial cell adhesion

B1: isoDGR#3-linker conjugate, peak P2 (peptide)
peptide: cyclo(C(SMCC)[βAsp]GRGG)
modifications: not fully specified
notes: said to be similar to isoDGR#1-linker (P2 carboxylic form); also called isoDGR#3-P2
Ki [8]: 18 nM

B2: c(CGisoDGRG) (peptide)
peptide: cyclo(CG[βAsp]GRG)
SMILES: N=C(N)NCCC[C@@H]1NC(=O)CNC(=O)C[C@@H](C(=O)O)NC(=O)CNC(=O)[C@H](CS)NC(=O)CNC1=O
notes: also called isoDGR#1
Ki [9]: 225 nM
ratio of integrin Ki/αvβ3 Ki [9]: 2
Ki [10]: 1470 nM
ratio of integrin Ki/αvβ3 Ki [10]: 14
Ki [11]: 7270 nM
ratio of integrin Ki/αvβ3 Ki [11]: 70
Ki [12]: 320 nM
ratio of integrin Ki/αvβ3 Ki [12]: 3
Ki [13]: 103 nM
ratio of integrin Ki/αvβ3 Ki [13]: 1

B3: c(CisoDGRGG) (peptide)
peptide: cyclo(C[βAsp]GRGG)
SMILES: N=C(N)NCCC[C@@H]1NC(=O)CNC(=O)C[C@@H](C(=O)O)NC(=O)[C@H](CS)NC(=O)CNC(=O)CNC1=O
notes: also called isoDGR#3
Ki [9]: 42 nM
Ki [10]: 58 nM
Ki [11]: 54 nM
Ki [12]: 21 nM
Ki [13]: 43 nM

cyclo(C[βAsp]GRG) (SMILES N=C(N)NCCC[C@@H]1NC(=O)CNC(=O)C[C@@H](C(=O)O)NC(=O)[C@H](CS)NC(=O)CNC1=O, also called isoDGR#2) [c(CisoDGRG)]
Ki [9]: 492 nM
ratio of integrin Ki/αvβ3 Ki [9]: 1
Ki [10]: 899 nM
ratio of integrin Ki/αvβ3 Ki [10]: 1.9
Ki [11]: 1080 nM
ratio of integrin Ki/αvβ3 Ki [11]: 2.2
Ki [12]: 266 nM
ratio of integrin Ki/αvβ3 Ki [12]: 0.5
Ki [13]: 483 nM
ratio of integrin Ki/αvβ3 Ki [13]: 1

B4: isoDGR#1-linker conjugate, peak P1 (peptide)
peptide: cyclo(C([SMCC-NH2])G[βAsp]GRG)
notes: HPLC peak P1 (amido form); also called isoDGR#1-P1
Ki [14]: 35 nM
ratio of integrin Ki/αvβ3 Ki [14]: 1
Ki [15]: 583 nM
ratio of integrin Ki/αvβ3 Ki [15]: 17
Ki [16]: 5600 nM
ratio of integrin Ki/αvβ3 Ki [16]: 160
Ki [17]: 302 nM
ratio of integrin Ki/αvβ3 Ki [17]: 8.6
Ki [8]: 35 nM
ratio of integrin Ki/αvβ3 Ki [8]: 1

B5: isoDGR#1-linker conjugate, peak P2 (peptide)
peptide: cyclo(C([SMCC-OH′])G[βAsp]GRG)
notes: HPLC peak P2 (carboxylic form, partial hydrolysis of sulfo-succinimide); also called isoDGR#1-P2
Ki [14]: 52 nM
ratio of integrin Ki/αvβ3 Ki [14]: 1.6
Ki [15]: 2730 nM
ratio of integrin Ki/αvβ3 Ki [15]: 80
Ki [16]: 10500 nM
ratio of integrin Ki/αvβ3 Ki [16]: 318
Ki [17]: 318 nM
ratio of integrin Ki/αvβ3 Ki [17]: 9.6
Ki [8]: 33 nM
ratio of integrin Ki/αvβ3 Ki [8]: 1
